From a protein production outcome set (Wang et al. 2014) come the findings set out here.

The data set is described as follows: label from the status in PepcDB records.
Consider “MANTYGGVIFLGIEEKPKGRFSVTGIAVPERVLKALWDGLNNRQRISINLLTDKMVEVIEIQGKQVIRIQVPRARRAQRPVYVGQNPLTGTYRRNYEGDYLCDEETIKRMLAEQVEEVRDARLLENYGFDDIEPNTLKAYRNQYDLTKALSALVRDGFLESGGIARGTFYFFPGEPPNAEADLVAQNYKFVEKSSPEDLLLGIIPKEIFDDLKPSSDDLKPSSDDLEPSSDDLEPSSDDWQSLMAIAVTIRNKGKVSTDIMEATILRLCQGRFLNHKQLQELLDRSYNTLRLGYLSKMHKKGQLELRYPDKLTHPNQGYRTKNSSSSDF”, for which the protein production result is “failed”.
For “MSQSSECARPHRRGFDFCASAVFLCTQRAQSVGGCAMRGCPLLLWRPETCQNPAPFCRGFAAQGFTAVSVVSRAVTKTTFFDENLIERVLWQFTMKEQRANAIPATCRYARYSANPTPTPRPVKINESDRTMNFEEKIATHYGHGNLTAAIRSGLQAQGITPEQASVEDLGPVDEFHIGGRAATVHFFDQIDLSETSKALDIGCGLGGAARYAAHSFGSQIEGIDLTPEYVETGGALCQWVGLSDKVNLSVASALSMPFESGDFDIAYMMHVGMNIEDKRALFKEVARVLKPGGTFAIYDIMRSNDEDLVYPVPWASSAETCCLAGPATYRAALEEGGFVVRQENDRRDFAIDFFEKMKKANAGQKSPPPLGLHVLMQQTTAEKIPNMIANLQAGRIKPVEIYAVKQ” the value was “failed”; for “MEEFQFTKRVHNILKIAAEEGESNIIQPVHLFIGMCKEGTGVCSELYMYLFRNVGTDFLEKLSLRKQDDLTDQEYEKIGQYKVSYKVLEILQIAKKRMERFQQVLMNEGHVIYALFRADTFIENPQIQKEILRIVEEPRDLAVDLKCFVPAYTHLTCHVRKANSSDFGKLVSFVSEEFGERWLHSIEYGFRTYKENVPIYIAEQKEVIVGFACYDVVRGKKGLFGPMGTAKQNRVKSVGKQLLHCSLHSMKQDGYEYAIIGQAGPVEFYERCCNARLIPIMDY”, “failed”.
For “MAEKQYDFTHVPKRQGNSIKWGVLKEKELPMWIAEMDFKIAPEIMASMEEKLKVAAFGYESVPAEYYKAVADWEEIEHRARPKEDWCVFASGVVPAISAMVRQFTSPGDQILVQEPVYNMFYSVIEGNGRRVISSDLIYENSKYSVNWADLEEKLATPSVRMMVFCNPHNPIGYAWSEEEVKRIAELCAKHQVLLISDEIHGDLVLTDEDITPAFTVDWDAKNWVVSLISPSKTFNLAALHAACAIIPNPDLRARAEESFFLAGIGEPNLLAIPAAIAAYEEGHDWLRELKQVLRDNFAYAREFLAKEVPEVKVLDSNASYLAWVDISALGMNAEDFCKYLREKTGLIISAGNGYRGNGHEFVRINLACPKELVIDGMQRLKQGVLNLNN” the value was “not failed”.
The same measure for “MHSFPPLLLLLFWGVVSHSFPATLETQEQDVDLVQKYLEKYYNLKNDGRQVEKRRNSGPVVEKLKQMQEFFGLKVTGKPDAETLKVMKQPRCGVPDVAQFVLTEGNPRWEQTHLTYRIENYTPDLPRADVDHAIEKAFQLWSNVTPLTFTKVSEGQADIMISFVRGDHRDNSPFDGPGGNLAHAFQPGPGIGGDAHFDEDERWTNNFREYNLHRVAAHELGHSLGLSHSTDIGALMYPSYTFSGDVQLAQDDIDGIQAIYGRSQNPVQPIGPQTPKACDSKLTFDAITTIRGEVMFFKDRFYMRTNPFYPEVELNFISVFWPQLPNGLEAAYEFADRDEVRFFKGNKYWAVQGQNVLHGYPKDIYSSFGFPRTVKHIDAALSEENTGKTYFFVANKYWRYDEYKRSMDPGYPKMIAHDFPGIGHKVDAVFMKDGFFYFFHGTRQYKFDPKTKRILTLQKANSWFNCRKN”: “not failed”; for “MKIDVVTIFPAYLDPLRQSLPGRAIASGLVDLQVHDLRRWTYDVHHSVDDSPYGGGPGMVMKAPVWGEALDEICSAETLLVVPTPAGSLFDQATAQRWSAEQHLVFACGRYEGIDQRVAEDSARRMRVEEVSIGDYVLPGGESAAVVMIEAVLRLLTGVLGNPASHQEDSFSPELDRLLEGPSYTRPPSWRGLDVPEILLSGDHARIATWRREVSLRRTRERRPDLAPPE”: “failed”.
For “MKQSKIRSVLQSIALLVLAGTAAAEPKLEKITHGRFEQIPVLRPDGEPQRVVIWFSGAGHVDQRTRQAELLRQDGAMVALVDTTHLYKVLAADSNHCTFSVGDVENLSRYLQAYYRDKTYRLPLLVGDGDGSGLVYAVAAQAPENILAGVVTDGLCP”, the protein production entry is recorded as “failed”.
